# Reference: paper PMC5988349 (Nature, 2018)
# How the values were obtained:
# cryo-EM structure = molecular target: the molecule itself; experiment: cryo-EM structure
# [1] = molecular target: β-actin subunit of pig dynactin (pig (endogenous in pig brain), UniProt Q6QAQ1 1-375); experiment: cryo-EM structure
binding result [1],Binder,binding result (cryo-EM structure)
binds,dynein heavy chain (HC) residues 1-1455 (domain or fragment) MSEPGGGGGEDGSAGLEVSAVQNVADVSVLQKHLRKLVPLLLEDGGEAPAALEAALEEKSALEQMRKFLSDPQVHTVLVERSTLKEDVGDEGEEEKEFISYNINIDIHYGVKSNSLAFIKRTPVIDADKPVSSQLRVLTLSEDSPYETLHSFISNAVAPFFKSYIRESGKADRDGDKMAPSVEKKIAELEMGLLHLQQNIEIPEISLPIHPMITNVAKQCYERGEKPKVTDFGDKVEDPTFLNQLQSGVNRWIREIQKVTKLDRDPASGTALQEISFWLNLERALYRIQEKRESPEVLLTLDILKHGKRFHATVSFDTDTGLKQALETVNDYNPLMKDFPLNDLLSATELDKIRQALVAIFTHLRKIRNTKYPIQRALRLVEAISRDLSSQLLKVLGTRKLMHVAYEEFEKVMVACFEVFQTWDDEYEKLQVLLRDIVKRKREENLKMVWRINPAHRKLQARLDQMRKFRRQHEQLRAVIVRVLRPQVTAVAQQNQGEVPEPQDMKVAEVLFDAADANAIEEVNLAYENVKEVDGLDVSKEGTEAWEAAMKRYDERIDRVETRITARLRDQLGTAKNANEMFRIFSRFNALFVRPHIRGAIREYQTQLIQRVKDDIESLHDKFKVQYPQSQACKMSHVRDLPPVSGSIIWAKQIDRQLTAYMKRVEDVLGKGWENHVEGQKLKQDGDSFRMKLNTQEIFDDWARKVQQRNLGVSGRIFTIESTRVRGRTGNVLKLKVNFLPEIITLSKEVRNLKWLGFRVPLAIVNKAHQANQLYPFAISLIESVRTYERTCEKVEERNTISLLVAGLKKEVQALIAEGIALVWESYKLDPYVQRLAETVFNFQEKVDDLLIIEEKIDLEVRSLETCMYDHKTFSEILNRVQKAVDDLNLHSYSNLPIWVNKLDMEIERILGVRLQAGLRAWTQVLLGQAEDKAEVDMDTDAPQVSHKPGGEPKIKNVVHELRITNQVIYLNPPIEECRYKLYQEMFAWKMVVLSLPRIQSQRYQVGVHYELTEEEKFYRNALTRMPDGPVALEESYSAVMGIVSEVEQYVKVWLQYQCLWDMQAENIYNRLGEDLNKWQALLVQIRKARGTFDNAETKKEFGPVVIDYGKVQSKVNLKYDSWHKEVLSKFGQMLGSNMTEFHSQISKSRQELEQHSVDTASTSDAVTFITYVQSLKRKIKQFEKQVELYRNGQRLLEKQRFQFPPSWLYIDNIEGEWGAFNDIMRRKDSAIQQQVANLQMKIVQEDRAVESRTTDLLTDWEKTKPVTGNLRPEEALQALTIYEGKFGRLKDDREKCAKAKEALELTDTGLLSGSEERVQVALEELQDLKGVWSELSKVWEQIDQMKEQPWVSVQPRKLRQNLDALLNQLKSFPARLRQYASYEFVQRLLKGYMKINMLVIELKSEALKDRHWKQLMKRLHVNWVVSELTLGQIWDVDLQKNEAIVKDVLLVAQG,binds
,"BICDR1 (BICD related-1), as used for the cryo-EM of TDR (natural protein) MSAFCLGLAGRASAPAEPDSACCMELPAGAGDAVRSPATAAALVSFPGGPGELELALEEELALLAAGERSSEPGEHPQAEPESPVEGHGPPLPPPPTQDPELLSVIRQKEKDLVLAARLGKALLERNQDMSRQYEQMHKELTDKLEHLEQEKHELRRRFENREGEWEGRVSELETDVKQLQDELERQQLHLREADREKTRAVQELSEQNQRLLDQLSRASEVERQLSMQVHALKEDFREKNSSTNQHIIRLESLQAEIKMLSDRKRELEHRLSATLEENDLLQGTVEELQDRVLILERQGHDKDLQLHQSQLELQEVRLSYRQLQGKVEELTEERSLQSSAATSTSLLSEIEQSMEAEELEQEREQLRLQLWEAYCQVRYLCSHLRGNDSADSAVSTDSSMDESSETSSAKDVPAGSLRTALNDLKRLIQSIVDGVEPTVTLLSVEMTALKEERDRLRVTSEDKEPKEQLQKAIRDRDEAIAKKNAVELELAKCKMDMMSLNSQLLDAIQQKLNLSQQLEAWQDDMHRVIDRQLMDTHLKEQSRPAAAAFPRGHGVGRGQEPSTADGKRLFSFFRKI",binds
